In patent US12325863B2, “MDA-7/IL-24 secretory variants and methods of use” (Virginia Commonwealth University, priority 2018, dated 2025):

B1: MDA-7/IL-24: Melanoma differentiation associated gene-7/Interleukin-24, secreted protein of the IL-10 family (protein)
chain: QEFHFGPCQVKGVVPQKLWEAFWAVKDTMQAQDNITSARLLQQEVLQNVSDAESCYLVHTLLEFYLKTVFKNYHNRTVEVRTLKSFSTLANNFVLIVSQLQPSQENEMFSIRDSAHRRFLLFRRAFKQLDVEAALTKALGEVDILLTWMQKFYKL

Key:
[1] = Sabutoclax and BI-97D6 in combination with MDA-7/IL-24; details: combined with MDA-7/IL-24; earlier observation referred to
Procedure: To test a multi-target approach for treatment of prostate cancer bone metastases, experiments were conducted to target Mcl-1 inhibition and investigate the effects on NG-mda-7/IL-24 efficacy. […] In addition to these inhibitors, three commercially available targeted inhibitors were evaluated to determine potential synergistic effects with MDA-7/IL-24. […] Next, the therapeutic effect of MDA-7/IL-24 protein in combination with BI-97D6 was tested, in male athymic nude mice injected by the intracardiac route with human prostate cancer PC3-ML cells, resulting in bone metastases.

CD11b+Gr-1+ MDSCs = details: single administration 5 mg/kg or 20 mg/kg i.p., 24 hours, spleen; FIG. 33
Procedure: 24 hrs. later, splenic CD11b+Gr-1+ MDSCs were assessed by FACS.
Twenty-four (24) hours later, splenic CD11b^+Gr-1^+ MDSCs were assessed by FACS.

[2] = test system: human prostate cancer PC3-ML cells; experiment: PC3-ML intracardiac bone metastasis model in athymic nude mice; type: in vivo; details: single agent, versus control group
Procedure: To test a multi-target approach for treatment of prostate cancer bone metastases, experiments were conducted to target Mcl-1 inhibition and investigate the effects on NG-mda-7/IL-24 efficacy. Using NMR (nuclear magnetic resonance) and computational biology, two Mcl-1 inhibitors were identified (Sabutoclax and BI-97D6) and their activity was validated in immune competent mice in combination with MDA-7/IL-24. In addition to these inhibitors, three commercially available targeted inhibitors were evaluated to determine potential synergistic effects with MDA-7/IL-24. The three inhibitors were UMI-77 (showing selectivity to Mcl-1 over other members of the Bcl-2 family), Marinopyrrole A (selective inhibitor of Mcl-1), and A-1210477. […] Mcl-1 expression was elevated by 1.7-fold in RM1-BM (RM1-BM cells selected for enhanced metastasis to bone) as compared to RM1 cells, indicating functional relevance of Mcl-1 in this metastatic process. […] This further supported the cancer-specificity of specific Mcl-1 inhibitors. Next, the therapeutic effect of MDA-7/IL-24 protein in combination with BI-97D6 was tested, in male athymic nude mice injected by the intracardiac route with human prostate cancer PC3-ML cells, resulting in bone metastases.

[3] = test system: prostate cancer bone metastases (RMI-Luc cells); experiment: RM1-Luc bone metastases, OT-I T cells with or without MDA-7/IL-24 protein; type: in vivo, C57BL/6 mice; details: OT-I in combination with protein i.v. 5 mg/kg body weight, 3 times; FIG. 29
Procedure: (§1) C57BL/6 mice established with experimental bone metastases via intratibial injection of ovalbumin-positive CaP RM1-Luc cells expressing luciferase were treated with OVA-specific T cells (OT-I) alone or in combination with recombinant MDA-7/IL-24 protein i.v. (5 mg/kg body weight, 3 times). Development of bone lesions was monitored by BLI. Luciferase intensity was quantified and is presented graphically.
as §1, with “intra-tibial” for “intratibial”, “prostate cancer RMI-Luc” for “CaP RM1-Luc”, “intravenously” for “i.v.”, “bioluminescent imaging (BLI) (FIG. 29 left panel).” for “BLI.”, “graphically (FIG. 29 graph).” for “graphically.”

CD8+ T cells = experiment: 3H-thymidine incorporation in stimulated CD8+ T cells; type: cell-based; details: anti-CD3/CD28 stimulation, 20 ng/ml, p<0.05; FIG. 31A
Procedure: (§2) FIGS. 31A-31B show example results illustrating that MDA-7/IL-24 promotes T cell expansion and activation. FIG. 31A: CD8+ T cells were stimulated with anti-CD3/CD28 antibodies in the presence or absence of purified MDA-7/IL-24 protein (20 ng/ml). Cell proliferation was measured using ^3H-thymidine (TdR) incorporation assays. p<0.05. FIG. 31B: C57BL/6 mice were injected i.v. with MDA-7/IL-24 protein (10 μg) or PBS. 48 h later, lymph node cells were assessed for IFN-γ-producing CD8+ T cells by intracellular staining.
(§3) In subsequent experiments, CD8^+ T cells were stimulated with anti-CD3/CD28 antibodies in the presence or absence of purified MDA-7/IL-24 protein (20 ng/ml). Cell proliferation was measured using ^3H-thymidine (TdR) incorporation assays. p<0.05. […] C57BL/6 mice were injected intravenously with MDA-7/IL-24 protein (10 μg) or PBS; 48 hours later, lymph node cells were assessed for IFN-γ-producing CD8^+ T cells by intracellular staining.

[4] = test system: IFN-γ-producing CD8+ T cells; experiment: IFN-γ-producing CD8+ T cells in lymph nodes after i.v. protein; type: in vivo, C57BL/6 mice; details: 10 μg i.v., 48 hours, lymph node cells; FIG. 31B
Procedure: as §2, §3

breast cancer cells = experiment: ER stress response and surface calreticulin in breast cancer cells; type: cell-based, mouse
From the text: FIGS. 41A-41C show example images illustrating that MDA-7/IL-24 therapy enhances immunogenicity of mouse mammary tumors. FIG. 41A: immunogenic BCa cell death induced by MDA-7/IL-24 therapy. BALB/c mice were immunized with irradiated, Ad.mda-7 (1,2) or Ad.null (3,4) infected 4T1 cells (MOI=1), challenged with live 4T1 cells. The images were taken two weeks' post-tumor challenge. […] FIG. 41C: MDA-7/IL-24 therapy triggers the surface presence of CRT, assessed by immunofluorescence staining (left) and immunoblotting analysis of plasma membrane or cytosolic fractions (right).
Immunogenic breast cancer cell death was induced by MDA-7/IL-24 therapy. BALB/c mice were immunized with irradiated, Ad.mda-7 (mouse 1 and 2) or Ad.null (mouse 3 and 4) infected 4T1 cells (MOI=1), and then challenged with live 4T1 cells. The images were taken two weeks' post-tumor challenge.

Row | Molecule | antitumor synergy [1] | frequency of CD11b+Gr-1+ MDSCs (CD11b+Gr-1+ MDSCs) | bone metastases [2] | therapeutic potency of ATT on bone metastases (BLI) [3] | T cell proliferation (3H-thymidine incorporation) (CD8+ T cells) | frequency of IFN-γ-expressing CD8+ T cells [4] | surface calreticulin (immunofluorescence, immunoblotting) (breast cancer cells; FIG. 41C) | ER stress response (breast cancer cells; GRP78/BiP, GRP170, FIG. 41B)
1 | Cc1cc2c(C(=O)NC[C@H](C)c3ccccc3)c(O)c(O)cc2c(O)c1-c1c(C)cc2c(C(=O)NC[C@H](C)c3ccccc3)c(O)c(O)cc2c1O [BI-97C1, Sabutoclax] | antitumor synergy | substantially reduced the frequency of CD11b^+Gr-1^+ MDSCs |  |  |  |  |  | 
2 | B1 |  |  | statistically significant inhibition of bone metastases | significantly enhanced the therapeutic potency of ATT | significantly enhanced the proliferation of T cells | increased the frequency of IFN-γ-expressing CD8^+ T cells | triggers the surface presence of calreticulin (CRT) | upregulation of ER-resident chaperones
